# Target: human Axl on MDA-MB-231 cells (human) (UniProt P30530)
# Sequence of UniProt P30530 (P30530 26-894 Q764R limits assumed): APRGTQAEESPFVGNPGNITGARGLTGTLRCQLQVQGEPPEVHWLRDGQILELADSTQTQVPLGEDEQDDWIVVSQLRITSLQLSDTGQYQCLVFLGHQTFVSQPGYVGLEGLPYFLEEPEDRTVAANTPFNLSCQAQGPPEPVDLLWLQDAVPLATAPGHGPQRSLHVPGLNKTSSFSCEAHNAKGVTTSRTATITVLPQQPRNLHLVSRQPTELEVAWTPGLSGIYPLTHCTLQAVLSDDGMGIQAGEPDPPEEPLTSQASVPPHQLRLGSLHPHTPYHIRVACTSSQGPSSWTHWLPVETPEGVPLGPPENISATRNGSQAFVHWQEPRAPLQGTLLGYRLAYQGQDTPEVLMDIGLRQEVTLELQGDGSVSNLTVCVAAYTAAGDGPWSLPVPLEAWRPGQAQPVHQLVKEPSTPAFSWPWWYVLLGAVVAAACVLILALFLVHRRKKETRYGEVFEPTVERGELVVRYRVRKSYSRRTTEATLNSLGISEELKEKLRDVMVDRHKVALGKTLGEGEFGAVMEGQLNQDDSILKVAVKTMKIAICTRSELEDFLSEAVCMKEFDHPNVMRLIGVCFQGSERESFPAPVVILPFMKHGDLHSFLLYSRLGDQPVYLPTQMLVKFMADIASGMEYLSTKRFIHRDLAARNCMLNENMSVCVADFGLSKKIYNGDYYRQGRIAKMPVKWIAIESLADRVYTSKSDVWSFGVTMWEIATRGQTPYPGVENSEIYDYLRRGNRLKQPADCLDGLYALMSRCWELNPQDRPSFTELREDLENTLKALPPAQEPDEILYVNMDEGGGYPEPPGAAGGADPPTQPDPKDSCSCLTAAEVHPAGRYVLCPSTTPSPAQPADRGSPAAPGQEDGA
row,Substance,"EC50 (pM), concentration leading to 50% cell killing, XTT/PMS viability of MDA-MB-231 cells after 72 h [table] [pM]"
1,Control SAP,4080
2,Saporin,79800
